For assay [1], the target named is T1, human DLL3 over-expressed on 293 cells (human, UniProt Q9NYJ7 27-618).
T1 construct: identical extracellular and transmembrane regions; also called hDLL3; Delta-like ligand 3
T1 sequence: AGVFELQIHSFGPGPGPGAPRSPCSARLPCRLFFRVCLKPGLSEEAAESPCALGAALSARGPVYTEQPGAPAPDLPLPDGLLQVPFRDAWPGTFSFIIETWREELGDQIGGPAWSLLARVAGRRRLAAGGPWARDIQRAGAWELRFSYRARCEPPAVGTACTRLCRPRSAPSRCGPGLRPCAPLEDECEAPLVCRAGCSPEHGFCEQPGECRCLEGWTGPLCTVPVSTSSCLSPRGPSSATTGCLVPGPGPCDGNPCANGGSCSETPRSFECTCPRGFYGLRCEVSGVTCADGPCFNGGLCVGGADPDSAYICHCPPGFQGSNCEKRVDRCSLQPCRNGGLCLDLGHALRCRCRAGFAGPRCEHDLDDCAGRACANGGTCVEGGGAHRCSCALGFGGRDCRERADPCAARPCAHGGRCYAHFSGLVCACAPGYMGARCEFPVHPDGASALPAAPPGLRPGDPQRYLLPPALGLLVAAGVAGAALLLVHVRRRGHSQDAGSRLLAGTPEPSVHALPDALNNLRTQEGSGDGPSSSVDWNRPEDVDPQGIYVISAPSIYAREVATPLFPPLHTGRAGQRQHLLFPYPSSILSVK
The experiment in a line: flow cytometry, 293 cells over-expressing human DLL3. As for the experimental part:
(§1) In addition to evaluating the exemplary modulators as set forth above, flow cytometry was performed in order to confirm that selected SC16 antibody modulators can immunospecifically associate with human DLL3 and to determine whether the same antibodies cross-react with cynomolgus, rat and/or murine DLL3. More particularly the exemplary murine antibodies were analyzed by flow cytometry using a FACSCanto II and 293 cells over-expressing murine, rat, cynomolgus or human DLL3. In some cases, exemplary murine modulators were analyzed by flow cytometry using a FACSCanto II and yeast cells displaying cynomolgus DLL3 using the methods described by Cochran et al. (J Immunol Methods. 287 (1-2):147-158 (2004).
Background: A flow cytometer gives signals particle by particle.

Assay [2] addresses T2, human DLL3 (UniProt Q9NYJ7 27-492).
T2 chain: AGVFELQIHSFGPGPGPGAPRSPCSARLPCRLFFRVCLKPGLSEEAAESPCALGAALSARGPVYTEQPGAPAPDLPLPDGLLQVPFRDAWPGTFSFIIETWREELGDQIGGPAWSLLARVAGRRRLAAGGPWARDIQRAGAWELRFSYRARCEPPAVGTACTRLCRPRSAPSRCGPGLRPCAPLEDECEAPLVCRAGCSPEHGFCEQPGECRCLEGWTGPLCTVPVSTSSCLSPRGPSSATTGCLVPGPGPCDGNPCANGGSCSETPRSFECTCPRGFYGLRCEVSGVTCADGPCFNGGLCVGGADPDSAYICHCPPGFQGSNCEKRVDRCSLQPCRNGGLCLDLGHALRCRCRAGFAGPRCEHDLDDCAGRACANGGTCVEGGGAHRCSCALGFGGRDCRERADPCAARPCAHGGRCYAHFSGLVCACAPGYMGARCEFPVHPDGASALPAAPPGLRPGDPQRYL
The assay is described as follows: SPR (Biacore). (In SPR one partner is held on a chip, and binding of the other changes the refractive index at the surface.)

The target in assay [3] is T3, rat DLL3 over-expressed on 293 cells (rat, UniProt O88671 33-589).
T3 construct: whole, on cells
T3 sequence (looked up): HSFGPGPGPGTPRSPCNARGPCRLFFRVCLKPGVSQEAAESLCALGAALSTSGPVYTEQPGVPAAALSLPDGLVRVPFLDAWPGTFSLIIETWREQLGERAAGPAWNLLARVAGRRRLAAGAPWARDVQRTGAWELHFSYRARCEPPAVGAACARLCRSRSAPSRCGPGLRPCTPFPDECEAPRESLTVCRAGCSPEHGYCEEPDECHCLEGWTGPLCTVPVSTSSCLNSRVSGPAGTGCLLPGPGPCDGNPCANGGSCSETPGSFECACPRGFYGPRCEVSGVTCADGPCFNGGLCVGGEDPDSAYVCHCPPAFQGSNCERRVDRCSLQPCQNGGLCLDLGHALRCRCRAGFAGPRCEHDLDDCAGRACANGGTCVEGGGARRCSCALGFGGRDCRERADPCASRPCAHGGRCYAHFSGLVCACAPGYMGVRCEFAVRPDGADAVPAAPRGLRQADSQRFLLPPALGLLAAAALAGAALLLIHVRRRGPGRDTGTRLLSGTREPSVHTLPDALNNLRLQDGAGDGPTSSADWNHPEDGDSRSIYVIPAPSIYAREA
The experiment in a line: flow cytometry, 293 cells over-expressing rat DLL3. As for the experimental part: as §1

The target of assay [4] is T2, human DLL3. The experiment in a line: BLI (ForteBio). (In BLI a coated tip is dipped into the sample, and binding shifts an interference pattern.)
The target in assay [5] is T2, human DLL3. The experiment in a line: BLI (ForteBio).

Numbering of substitutions follows the chain as printed.

As usually defined, the Kd is the free concentration of one partner at which half of the binding sites on the other are occupied at equilibrium, for simple one-to-one binding. Lower therefore signals higher affinity.

B1: SC16.7 (antibody, V domains shown)
VH: EVQLQQSGPELVKPGASVKISCKASGYSFTGYKMHWVKQSHVKSLEWIGRINPYNGATSYNQNFKDKATLTVDKSSSTAYMDLHSLTSEDSAVYFCARGDYRYDWFAYWGQGTLVTVSA
VL: NIMMTQSPSSLAVSAGEKVTMSCKSSQSVLYSSNQKNYLAWYQQKPGQSPKLLIYWASTRESGVPDRFTGSGSGTDFTLTISTVQVEDLAVYYCHQYLSSWTFGGGTKLEIK
notes: murine mAb; V regions only
Consider B1, for which, in assay [1], the binding result is “binds”.

B2: SC16.65 (antibody, V domains shown)
VH: QVTLKESGPGILQPSQTLSLTCSFSGFSLSTSGMGVGWIRQPSGKGLEWLALIWWDDVKRYNPALKSRLTISKDASSSQVFLKIASVDTADTATYYCARIASYDYDVVYAMDYWGQGTSVSVSS
VL: QIVLTQSPALMSASPGEKVTMTCSVTSSVSYMYWYQQKPRSSPKPWIYLTSNLASGVPARFSGSGSGTSYSLTISSVEAEDAATYYCQQWRNNPFTFGSGTKVEIK
notes: murine mAb; V regions only
Consider B2, for which the binding result in assay [1] was “binds”. Besides, the Kd in assay [2] is 900 pM.

B3: SC16.13 (antibody, V domains shown)
VH: B2 VH with L52H, A75T, A101V, Y103F, Y105N, Y109S, S121T
VL: B2 VL with M11V, V25A, T26S, V77M, N92S, V103L
In assay [2], B3 displayed a Kd of 2000 pM.

B4: SC16.25 (antibody, V domains shown)
VH: QVTLKESGPGILQPSQTLSLTCSFSGFSLSTSGMGVGWIRQPSGEGLEWLTDIWWDDNKYYNPSLKSRLTISKDTSSNQVFLNITSVDTADTATYYCARRVNYYYDPYYAMDYWGQGTSVTVSS
VL: QIVLTQSPAIMSASPGEKVTMTCSASSSVSYMHWYQQKSGTSPKRWIYDSSKLASGVPARFSGSGSGTSYSLTISSMEAEDAATYYCQQWSSNPLTFGAGTKLELK
notes: murine mAb; V regions only
On to B4, for which the binding result in assay [1] is “binds”. The same molecule registered a Kd in assay [2] of 200 pM.

B5: SC16.56 (antibody, V domains shown)
VH: QIQLVQSGPELKKPGETVKISCKASGYTFTNYGMNWVKQAPGKGLKWMAWINTYTGEPTYADDFKGRFAFSLETSASTASLQIINLKNEDTATYFCARIGDSSPSDYWGQGTTLTVSS
VL: SIVMTQTPKFLLVSAGDRVTITCKASQSVSNDVVWYQQKPGQSPKLLIYYASNRYTGVPDRFAGSGYGTDFSFTISTVQAEDLAVYFCQQDYTSPWTFGGGTKLEIR
notes: murine mAb; V regions only
Take B5: the binding result in assay [1] and in assay [3] was “binds” each time. The same molecule yielded a Kd in assay [2] of 1000 pM.

B6: SC16.34 (antibody, V domains shown)
VH: B5 VH with K13R, A49G, E57D, S80Y, I84N, D101G, S102N, T113S
VL: B5 VL with V34A, T56S, A63T, S72T, T93S, R107K
notes: murine mAb; V regions only
Regarding B6, the binding result in assay [1] and in assay [3] was “binds” each time. In assay [2], the Kd turned out to be 200 pM.

B7: SC16.15 (antibody, V domains shown)
VH: QVQLQQSGAELAKPGASVKMSCKASGYTFTRYWIHWIKQRPGQGLEWIGYINPTTVYTEFNQNFKDKATLTADKSSTTASMQLSSLTSEDSAVYYCARGGSNFFDYWGQGTTLTVSS
VL: DIQMTQSPASLAASVGETVAITCRASENIYYNLAWYQQKQGKSPQLLIYTANSLEDGVPSRFSGSGSGTQYSLKINSMQPEDSATYFCKQAYDVPPTFGGGTKLEIK
notes: murine mAb; V regions only
Turning to B7, the binding result in assay [1] and in assay [3] was “binds” throughout. In assay [2], this molecule returned a Kd of 500 pM.

B8: SC16.4 (antibody, V domains shown)
VH: QIQLVQSGPELKKPGETVKISCKASGYTFTDYSMHWVKQAPGKGLKWMGWINTETGEPGYADDFKGRFAFSLETSASTAYLQINNLKNEDTATYFCARYDGYAMDYWGQGTSVTVSS
VL: DIQMTQTTSSLSASLGDRVTISCRASQDISNYLNWYQQKPDGTVKLLIYYTSRLHSGVPSRFSGSGSGTDYSLTISNLELEDIATYFCQQGDMLPWTFGGGTKLEIK
notes: murine mAb; V regions only
With B8, binding in assay [4] was characterised by a dissociation constant (Kd) of 500 pM. Also, the binding result in assay [1] and in assay [3] was “binds” in each case.

B9: SC16.39 (antibody, V domains shown)
VH: EVKLEESGGGLVQFGGSMKLSCAASGFTFSDAWMDWVRQSPEKGLEWVAEIRNKANNHATYYPESVKGRFTISRDDSKSRVYLQMNNLRAEDTGIYYCTGYSSFAYWGQGTLVTVSA
VL: B8 VL with I29V, S30I, G68R, L80P, F87Y, G91Y, D92S, M93E, L94R, W96Y
B9 showed a Kd in assay [5] of 1000 pM.

B10: SC16.10 (antibody, V domains shown)
VH: QVTLKESGPGILQSSQTLSLTCSFSGFSLSTSGMGVGWIRQPSGKGLEWLAHIWWDDVKRYNPVLKSRLTISKDTSSSQVFLKIASVDTADTATYYCARLVDDLYYFDYWGQGTTLTVSS
VL: QIVLTQSPAIMSASLGERVTMTCTASSSVSSSYLHWYQQKPGSSPKLWIYSTSNLASGVPTRFSGSGSGTSYSLTISSMEAEDAATYYCHQYHRSPFTFGSGTKLEIK
notes: murine mAb; V regions only
With B10, binding in assay [4] was characterised by a dissociation constant (Kd) of 4000 pM. Besides, the binding result in assay [1] is recorded as “binds”.

B11: SC16.8 (antibody, V domains shown)
VH: QAQLQQSGAELVRPGTSVKVSCKASGYAFTNYLIEWVKQRPGQGLEWIGVINPGTGGTNYNENFKGKATLTADKSSSTAYMQLSSLTSDDSAVYFCARSPYDYHEGAMDYWGQGTSVTVSS
VL: EIQMTQSPSSMSASLGDRITITCQATQDIVKNLNWYQQKPGKPPSFLIYYAIELAEGVPSRFSGSGSGSDYSLTISNLESEDFADYYCLQFYEFPFTFGAGTKLELK
notes: murine mAb; V regions only
B11 gave a Kd in assay [4] of 500 pM. Further, the binding result in assay [1] and in assay [3] was “binds” each time.

B12: SC16.67 (antibody, V domains shown)
VH: EVQLVETGGGLVQPKGSLKLSCAVSAFTFTTYAMNWVRQAPGKGLEWVARIRNKSNNYATYYADSVKDRFTISRDDSQSMLYLQMNNLKIEDTAMYYCVFYYDYVYWGQGTLVTVSA
VL: QAVVTQESALTTSPGETVTLTCRSSTGAVTTSNYANWIQEKPDHLFTGLIGGTNNRAPGVPARFSGSLIGDKAALTITGAQTEDEAIYFCGLWYSNHLVFGGGTKLTVL
B12: the Kd in assay [4] amounted to 500 pM.

These data come from patent US20160015828A1 (AbbVie / Abbott, published 2016).
